This note sets out measurements from US20060211041A1 (Astellas, published 2006).

For series [1], the target named is T1, GST protein (protein of GST moiety alone, from pGEX-3X) (UniProt P08515 1-218 = GST).
T1 construct: Control of the pull down
Nature of the series: GST pull down of 35S-labelled in vitro translated human AKBP2, SDS-PAGE and autoradiography. As for the experimental part: Using the GST fusion Akt2 protein (to be referred to as GST-Akt2 hereinafter) prepared in the aforementioned (2), the presence or absence of direct interaction between human AKBP2 protein and Akt2 protein was verified by the GST-pull down method (H. Matsushime et al., Jikken Kogaku, Vol. 113, No. 6, p. 528, 1994). Firstly, using 0.5 μg of the pcDNA-human AKBP2 prepared in the aforementioned Example 5 as the template, and using 40 μl of a TNT kit (TNTR Quick Coupled Transcription/Translation System; Promega) and 1.3 MBq of a radioisotope (redivue Pro-mix L-[³⁵S]; Amersham), radioisotope-labeled human AKBP2 protein was prepared by in vitro transcription and translation in accordance with the attached protocols. A 15 μl portion of this human AKBP2 protein preparation solution was mixed with 1 μg of the GST protein or GST-Akt2 purified on glutathione beads in the aforementioned (2) and shaken at 4° C. for 1 hour after adding 0.3 ml of Buffer A (50 mM Tris-HCl (pH 7.5), 10% glycerol, 120 mM NaCl, 1 mM EDTA, 0.1 mM EGTA, 0.5 mM PMSF, 0.5% NP-40). […] After repeating this operation 4 times, proteins in the precipitate were separated by SDS polyacrylamide gel electrophoresis in accordance with a conventionally known method, and the human AKBP2 protein was detected by autoradiography. As a result, a band which is not detected when the GST protein is mixed was detected when GST-Akt2 was mixed.

The target of series [2] is T2, mouse AKBP2 over-expressed in NIH3T3 L1 fat cells from adenovirus vector AKBP2/pAdTrack-CMV.
T2 chain: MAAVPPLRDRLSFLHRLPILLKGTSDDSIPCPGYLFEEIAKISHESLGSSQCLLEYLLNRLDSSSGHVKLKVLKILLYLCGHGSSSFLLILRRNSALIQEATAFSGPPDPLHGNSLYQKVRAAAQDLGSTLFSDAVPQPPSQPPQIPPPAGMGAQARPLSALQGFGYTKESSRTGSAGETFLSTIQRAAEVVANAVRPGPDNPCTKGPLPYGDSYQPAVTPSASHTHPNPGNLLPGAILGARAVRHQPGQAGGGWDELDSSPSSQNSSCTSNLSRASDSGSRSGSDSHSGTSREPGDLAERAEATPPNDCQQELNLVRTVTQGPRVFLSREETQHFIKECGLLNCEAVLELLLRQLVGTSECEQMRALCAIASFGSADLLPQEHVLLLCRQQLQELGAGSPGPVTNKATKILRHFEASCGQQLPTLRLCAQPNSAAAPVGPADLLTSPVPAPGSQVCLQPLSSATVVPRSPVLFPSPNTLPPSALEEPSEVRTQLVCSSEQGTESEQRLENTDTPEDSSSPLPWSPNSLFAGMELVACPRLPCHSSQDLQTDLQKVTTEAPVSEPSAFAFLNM

The target in series [3] is T3, mouse AKBP2 (Akt2 Binding Protein 2) fused to the GAL4 transcriptional activation domain (pACT2 library clone … (mouse, UniProt Q3U3N6 1-573)).
T3 construct: Prey of the yeast two hybrid screen; also called mouse AKBP2 protein; not shown: limits and junction r
T3 sequence: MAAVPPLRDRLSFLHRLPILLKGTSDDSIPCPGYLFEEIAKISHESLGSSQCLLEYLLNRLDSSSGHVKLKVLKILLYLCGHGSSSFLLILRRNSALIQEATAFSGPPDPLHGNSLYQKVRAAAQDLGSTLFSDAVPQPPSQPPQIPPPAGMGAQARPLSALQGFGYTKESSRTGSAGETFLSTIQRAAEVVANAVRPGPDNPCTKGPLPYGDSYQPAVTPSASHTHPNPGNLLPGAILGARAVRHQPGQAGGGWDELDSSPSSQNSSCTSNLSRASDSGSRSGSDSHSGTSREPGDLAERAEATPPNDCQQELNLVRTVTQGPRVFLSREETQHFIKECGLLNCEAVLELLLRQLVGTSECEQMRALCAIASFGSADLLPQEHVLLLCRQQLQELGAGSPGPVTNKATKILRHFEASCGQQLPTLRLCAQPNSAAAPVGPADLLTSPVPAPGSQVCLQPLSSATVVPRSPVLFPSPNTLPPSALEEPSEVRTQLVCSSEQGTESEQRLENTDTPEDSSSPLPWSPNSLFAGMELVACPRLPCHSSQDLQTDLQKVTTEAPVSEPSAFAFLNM
Briefly: yeast two hybrid, HIS3 (3AT resistance) and lacZ (β-galactosidase) reporters. As to the method:
The aforementioned yeast strain MaV203 for two hybrid transformed by pDB-Akt2 was suspended in 400 ml of YPD liquid medium (DIFCO), cultured at 30° C. for about 6 hours until absorbance at a wave length of 590 nanometer became from 0.1 to 0.4, and then made into competent cells by the lithium acetate method, and the final amount was suspended in 1.0 ml of 0.1 M lithium-tris buffer. The cells were transformed with 20 μg of the mouse fat tissue derived cDNA library prepared in the aforementioned (3), and the cells were selected by culturing on a solid synthetic minimal medium (DISCO, 20% agarose) from which tryptophan and leucine as respective selection markers of pDB-Akt2 and the library had been deleted, thereby obtaining a transformant into which both plasmids were introduced. At the same time, in order to select a cell having an activated reporter gene HIS3 which is expressed when a fusion protein of the GAL4 DNA binding domain artificially expressed in the two hybrid system is linked to a fusion protein of the GAL4 transcriptional activation domain, the transformed cells were cultured at 30° C. for 5 days on the solid minimal medium (20% agarose) from which histidine was removed together with tryptophan and leucine and to which 20 mM of 3AT (3-amino-1,2,4-triazole; Sigma) as an inhibitor of the enzyme encoded by HIS3 was added. […]

T1 sequence (P08515 whole entry): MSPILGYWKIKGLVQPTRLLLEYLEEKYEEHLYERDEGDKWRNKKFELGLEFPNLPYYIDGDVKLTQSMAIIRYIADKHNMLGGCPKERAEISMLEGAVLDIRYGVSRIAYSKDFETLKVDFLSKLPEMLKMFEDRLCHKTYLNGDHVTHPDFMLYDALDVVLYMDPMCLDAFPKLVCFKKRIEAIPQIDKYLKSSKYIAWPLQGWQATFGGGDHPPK

B1: human AKBP2-V5-His 6 fusion protein (in vitro transcribed and translated from pcDNA-human AKBP2, 35S-labelled) (other, not shown: small tags and cut ends)
chain: MAAAPPLRDRLSFLHRLPILLKGTSDDDVPCPGYLFEEIAKISHESPGSSQCLLEYLLSRLHSSSGHGKLKVLKILLYLCSHGSSFFLLILKRNSAFIQEAAAFAGPPDPLHGNSLYQKVRAAAQDLGSTLFSDTVLPLAPSQPLGTPPATGMGSQARPHSTLQGFGYSKEHGRTGSAGEAFLSTIQKAAEVVASAMRPGPESPSTRRLLPRGDTYQPAMMPSASHGPPTLGNLLPGAIPGPRAVRHQPGQAGGGWDELDSGPSSQNSSQNSDLSRVSDSGSHSGSDSHSGASREPGDLAERVEVVALSDCQQELSLVRTVTRGPRAFLSREEAQHFIKACGLLNCEAVLQLLTCHLRGTSECTQLRALCAIASLGSSDLLPQEHILLRTRPWLQELSMGSPGPVTNKATKILRHFEASCGQLSPARGTSAEPGPTAALPGPSDLLTDAVPLPGSQVFLQPLSSTPVSSRSPAPSSGMPSSPVPTPPPDASPIPAPGDPSEAEARLAESRRWRPERIPGGTDSPKRGPSSCAWSRDSLFAGMELVACPRLVGAGAAAGESCPDAPRAPQTSSQRTAAKEPPGSEPSAFAFLNA
modifications: radioisotope-labelled (redivue Pro-mix L-[35S])
notes: also called human AKBP2 protein
As for B1, in series [1], the binding result was “no binding (tested: 1 µg of the GST protein)”.

B2: Akt2 of NIH3T3 L1 fat cells (endogenous, immunoprecipitated with anti-Akt2 antibody) (protein)
chain: MNEVSVIKEGWLHKRGEYIKTWRPRYFLLKSDGSFIGYKERPEAPDQTLPPLNNFSVAECQLMKTERPRPNTFVIRCLQWTTVIERTFHVDSPDEREEWMRAIQMVANSLKQRGPGEDAMDYKCGSPSDSSTSEMMEVAVNKARAKVTMNDFDYLKLLGKGTFGKVILVREKATGRYYAMKILRKEVIIAKDEVAHTVTESRVLQNTRHPFLTALKYAFQTHDRLCFVMEYANGGELFFHLSRERVFTEDRARFYGAEIVSALEYLHSRDVVYRDIKLENLMLDKDGHIKITDFGLCKEGISDGATMKTFCGTPEYLAPEVLEDNDYGRAVDWWGLGVVMYEMMCGRLPFYNQDHERLFELILMEEIRFPRTLGPEAKSLLAGLLKKDPKQRLGGGPSDAKEVMEHRFFLSINWQDVVQKKLLPPFKPQVTSEVDTRYFDDEFTAQSITITPPDRYDSLDPLELDQRTHFPQFSYSASIRE
For the molecule B2, in series [2], the “phosphorylation of the 473rd serine of immunoprecipitated Akt2, western blotting with anti-phosphorylated serine473 antibody, 30 minutes of insulin stimulation” value was “degree of the phosphorylation acceleration was weakened in the cells infected with the AKBP2 virus than in the control virus-infected cells” and the “phosphorylation of the 473rd serine of immunoprecipitated Akt2, western blotting with anti-phosphorylated serine473 antibody, no stimulation” value is listed as “the phosphorylated state at the time of no stimulation was reduced in the cells infected with the AKBP2 virus in comparison with the control virus-infected cells”.

B3: human Akt2 fused to the GAL4 DNA binding region (expressed from pDB-Akt2 in yeast MaV203) (other, UniProt P31751 1-481, looked up)
chain: MNEVSVIKEGWLHKRGEYIKTWRPRYFLLKSDGSFIGYKERPEAPDQTLPPLNNFSVAECQLMKTERPRPNTFVIRCLQWTTVIERTFHVDSPDEREEWMRAIQMVANSLKQRAPGEDPMDYKCGSPSDSSTTEEMEVAVSKARAKVTMNDFDYLKLLGKGTFGKVILVREKATGRYYAMKILRKEVIIAKDEVAHTVTESRVLQNTRHPFLTALKYAFQTHDRLCFVMEYANGGELFFHLSRERVFTEERARFYGAEIVSALEYLHSRDVVYRDIKLENLMLDKDGHIKITDFGLCKEGISDGATMKTFCGTPEYLAPEVLEDNDYGRAVDWWGLGVVMYEMMCGRLPFYNQDHERLFELILMEEIRFPRTLSPEAKSLLAGLLKKDPKQRLGGGPSDAKEVMEHRFFLSINWQDVVQKKLLPPFKPQVTSEVDTRYFDDEFTAQSITITPPDRYDSLGLLELDQRTHFPQFSYSASIRE
notes: mature; Bait of the yeast two hybrid screen; also called Akt2 (PKBβ); not shown: limits and junction residues not pri
Turning to B3, the binding result in series [3] is given as “binds”.
